The values that follow come from the FLAb antibody collection.

One series is described as follows: melting temperature. The conditions noted are these: Circular dichroism. (In general: Circular dichroism is widely used to follow secondary structure.)
In the case of “QVQLVESGGGLVQAGGSLRLSCAASGRTYTMGWFRQAPGKEREFVAAMRWSDTDYADSLKGRFTISRDNANNAMYLQMNSLGPEDTAVYYCAAGEAWLARSTHHYDYWGQGTQVTVSS”, the Tm was 72.3 °C.
For “QVQLVESGGGLVQPGGSLRLSCAASGDTYGSYWMGWFRQAPGQGLEAVAAINRGGGYTVYADSVKGRFTISRDNSKNTLYLQMNSLRAEDTAVYYCAASGVLGGLHEDWFNYWGQGTLVTVSSHHHHHH”, the Tm amounted to 74 °C.
As for “QVQLVESGGGLVQPGGSLRLSCAASGYTYISGWFRQAPGQGLEAVAAIRSSDGTTYYADSVKGRFTISRDNSKNTLYLQMNSLRAEDTAVYYCAATEVAGWPLDIGIYDYWGQGTLVTVSS”, the Tm is 63.4 °C.
For the sequence “TRVDQTPRTATKETGESLTIICVLTDTSCVLHSTSWFRKNPGTTDWERMSIGGRYVESVNKGAKSFSLRIKDLTVADSATYYCKAQSHEYMEVCPYDWYDGAGTVLTVK”, the Tm is 55 °C.
For the sequence “TRVDQTPRTATKETGESLTINCVLTGTSCSLYSTSWFRKNPGTTDWERISIGGRYVESVNKGAKSFSLRIKDLTVADSATYYCKAQKHCGYDWYDGAGTALTVK”, the Tm is 72 °C.

The same series, now with this note: DSF (SYPRO).
Turning to “QVQLQESGGGSVQAGGSLRLSCVASEYDFNSYSSVSVGWFRQAPGKECVLVSRIGNDARTDYSDNVKGRFTISRDNAKRTAYLEMNSLKAEDTAVYYCAANQLSSAVVGTEYPCSKAAFAHWGQGTQVTVSS”, the Tm came out at 64.8 °C.
Regarding “QVQLVESGGGLVQAGGSLRLSCAVSGLGAHRVGWFRRAPGKEREFVAAIGANGGNTNYLDSVKGRFTISRDNAKNTIYLQMNSLKPQDTAVYYCAARDIETAEYTYWGQGTQVTVSS”, the Tm was 72.8 °C.
Still for that read-out and setting: for “QVQLVESGGGSVQAGGSLRLSCAASGSISSITYLGWFRQAPGKEREGVAALSTSSGTTYYADSVKGRFTVSLDNAENTVYLQMNSLKPEDTALYYCAAASSGSSSPLSSSSYTYWGQGTQVTVSS” the value was 95 °C.

The same series, now with this note: Other.
As for “QVQLVESGGGLVQAGGSLRLSCAASGYAYTYIYMGWFRQAPGKEREGVAAMDSGGGGTLYADSVKGRFTISRDKGKNTVYLQMDSLKPEDTATYYCAAGGYELRDRTYGQWGQGTQVTVSSAAALEHHHHHH”, the Tm came out at 64.2 °C.

Still in this series, the particulars now being: nanoDSF.
As for “QVQLQESGGGSVQAGGSLRLSCVASEYDFNSYSSVSVGWFRQAPGKECVLVSRIGNDARTDYSDNVKGRFTISRDNAKRTAYLEMNSLKAEDTAVYYCAANQLSSAVVGTEYPCSKAAFAHWGQGTQVTVSS”, the Tm is 64.5 °C.
Regarding “TGGALVQAGGSLRLSCAASETSSVSLSWMGWYRQAPGKERELVAGINRDRPKYKESVKGRFTISRDNAQNTVYLQMNSLKPEDTAVYYCNTVPPRGDYWGQGTQV”, the Tm came out at 65.7 °C.
With “TGGGLVQAGASLRLSCAASGRTFSTDHMGWFRQAPQKEREFVAAINAWSGLSIYYADSVKGRFTISRDNDKKTAYLQMNSLKPEDTAVYYCAAKEMGRGWVPQSSDDYDAWGQGTQV”, the Tm was determined as 66.6 °C.
In the case of “TGGGLVQPGGSLRLSCAASGSISSINAMGWYRQAPGKQRELVAAITIRGNTVYGDSVKGRFTVSRDNAKNTVYLQMNSLKPEDTAVYYCNAKSTPSLYAAGYGVDYWGEGTLV”, the Tm came out at 69.8 °C.
The same measure, in the same setting: for “TGGGWVQAGGSLRLSCAASGRAASGNAMAWFRQAPGKEREFVALISWSGGRPYYANSVKGRFAISRDNATNTVYLQMNRLKPEDTAVYYCAASPTIAILPTPYDYWGQGTQV” the value was 75.3 °C.
